Test results published in patent US20250163169.

Legend:
[1] = tested on: 43-mer covering the stalk region of CD95L (residue 103 to residue 145)
43-mer covering the stalk region of CD95L (residue 103 to residue 145), sequence (chain, as listed by the source): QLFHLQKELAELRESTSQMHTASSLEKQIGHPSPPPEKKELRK

MMP3, sequence (chain, as listed by the source): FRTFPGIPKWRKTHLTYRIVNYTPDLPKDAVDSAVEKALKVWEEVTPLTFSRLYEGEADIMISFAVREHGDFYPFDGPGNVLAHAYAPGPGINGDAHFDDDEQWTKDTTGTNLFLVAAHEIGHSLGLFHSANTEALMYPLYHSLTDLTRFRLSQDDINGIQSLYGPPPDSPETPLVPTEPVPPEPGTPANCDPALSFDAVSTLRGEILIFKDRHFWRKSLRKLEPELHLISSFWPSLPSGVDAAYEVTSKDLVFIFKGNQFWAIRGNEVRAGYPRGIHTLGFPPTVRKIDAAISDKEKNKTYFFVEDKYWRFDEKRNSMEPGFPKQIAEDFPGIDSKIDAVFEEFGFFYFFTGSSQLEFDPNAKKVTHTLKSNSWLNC
Recombinant Ig-CD95L, sequence (chain, as listed by the source): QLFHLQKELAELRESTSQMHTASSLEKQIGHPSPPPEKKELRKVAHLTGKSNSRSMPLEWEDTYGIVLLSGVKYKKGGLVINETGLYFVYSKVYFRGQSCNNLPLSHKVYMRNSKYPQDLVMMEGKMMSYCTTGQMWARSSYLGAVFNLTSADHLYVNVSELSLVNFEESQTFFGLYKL

MMP3
cleavage of Ig-CD95L (western blotting) (Recombinant Ig-CD95L): Using this Ig-CD95L, we showed that MMP2 and MMP3 can cleave CD95L
percentage of degradation of the 43-mer (LC-MS/MS) [1]: more of 20% of cleavage
